Assay results reported in US12723100 (CSPC MEGALITH BIOPHARMACEUTICAL, dated 2026).
Residue numbers refer to the chain shown, from its start.

T1: full-length human Nectin-4 on cells (human, UniProt Q96NY8 32-510)
T1 sequence: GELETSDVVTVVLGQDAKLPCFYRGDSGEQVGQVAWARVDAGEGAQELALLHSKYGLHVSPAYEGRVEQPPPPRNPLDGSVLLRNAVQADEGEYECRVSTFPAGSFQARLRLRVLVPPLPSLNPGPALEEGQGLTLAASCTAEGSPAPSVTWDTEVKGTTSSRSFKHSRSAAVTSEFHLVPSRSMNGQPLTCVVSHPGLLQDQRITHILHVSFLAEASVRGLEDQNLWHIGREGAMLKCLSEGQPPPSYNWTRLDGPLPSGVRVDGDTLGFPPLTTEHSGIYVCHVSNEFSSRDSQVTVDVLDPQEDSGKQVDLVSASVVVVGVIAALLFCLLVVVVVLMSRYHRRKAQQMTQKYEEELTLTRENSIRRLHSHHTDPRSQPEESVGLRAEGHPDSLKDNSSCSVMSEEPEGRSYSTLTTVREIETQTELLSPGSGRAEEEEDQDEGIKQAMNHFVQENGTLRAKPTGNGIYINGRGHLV

T2: human Nectin-1 with His tag (ACROBiosystems, catalog number PV1-H5223) (human, UniProt Q15223 31-355, biotinylated in Example 3 (sites not given))
T2 construct: Bought protein; also called biotinylated human Nectin-1
T2 sequence: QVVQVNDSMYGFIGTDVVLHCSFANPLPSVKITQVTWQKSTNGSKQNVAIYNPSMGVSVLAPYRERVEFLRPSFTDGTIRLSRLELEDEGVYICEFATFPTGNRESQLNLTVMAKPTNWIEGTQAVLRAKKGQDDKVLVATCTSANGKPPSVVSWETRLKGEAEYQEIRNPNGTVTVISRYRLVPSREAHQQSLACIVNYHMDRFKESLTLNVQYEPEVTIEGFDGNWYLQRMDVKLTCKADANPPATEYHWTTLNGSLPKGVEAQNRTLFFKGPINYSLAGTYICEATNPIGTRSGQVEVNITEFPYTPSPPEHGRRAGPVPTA

T3: human Nectin 2 (ACROBiosystems, Catalog no: PV2-H52E2) (human, UniProt Q92692 32-360)
T3 construct: extracellular domain
T3 sequence (looked up): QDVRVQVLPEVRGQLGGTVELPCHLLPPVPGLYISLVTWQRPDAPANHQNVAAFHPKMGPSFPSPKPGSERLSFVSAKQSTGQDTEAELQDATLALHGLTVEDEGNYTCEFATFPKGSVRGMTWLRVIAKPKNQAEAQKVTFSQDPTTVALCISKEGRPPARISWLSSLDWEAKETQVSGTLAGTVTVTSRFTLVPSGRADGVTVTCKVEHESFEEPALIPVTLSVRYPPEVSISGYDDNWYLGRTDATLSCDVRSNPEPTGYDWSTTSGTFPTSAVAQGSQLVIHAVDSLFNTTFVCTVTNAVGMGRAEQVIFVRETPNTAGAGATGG

T4: cynomolgus monkey Nectin-4 (cynomolgus monkey, UniProt Q96NY8 32-510 (human entry))
T4 construct: Transiently expressed on 293T cells; also called Cyno Nectin-4
T4 chain: T1 sequence with V39A, I230V, A437T

B1: N4_mAb 5 (antibody, human IgG1, V domains shown)
VH: EVQLQQSGPDLVKPGASVKISCKASGYSFTGHYMHWVKQSHGKSLEWIGRVNPNNGGSSYNQKFKDKAILTVDKSSTTAYMELRSLTSEDSAVYYCARDPLGGSYGFAYWGQGTLVTVSA
VL: DIVLTQSPASLAVSLGQRATISCRASQSVTTSSYSYMHWYQQKPGQPPKLLIKYASNLESGVPARFSGSGSGTDFTLNIHPVEEEDTATYYCQHSWEIPYTFGGGTKLEMK
notes: Tested as chimera (human IgG1/kappa constants); not shown: human IgG1 constant region (Uniprot P01857); human Kappa light chain constant region (UniProt P01834)
B2: N4_mAb 2 (antibody, human IgG1, V domains shown)
VH: QVQLKQSGPNLVQPSQSLSITCTVSGFSLTTYGAHWVRQSPGKGLEWLGVIWRGGSTDYNAAFMSRLSITKDNSKSQVFFKMNSLQADDTAIYYCAKIGYDGYAMDNWGQGTSVTVSS
VL: DFQVTQSPASLSASVGETVTITCRTSENIHNYLAWYQQKQGKSPQLLVYNAKTLADGVPSRFSGSGSGTQYSLKINSLQPEDFGTYYCQHFWSSPWTFGGGTKLEIK
notes: as for B1
B3: N4_mAb 6 (antibody, human IgG1, V domains shown)
VH: QVQLQQSGPELVKPGASVRISCKASGYTFTTYYIHWVKQRPGQGLEWIGWIYPGNVNTKYTENFKDKATLTADKSSSTAYMQLSSLTSEDSAVYFCARGLYYFDFWGQGTTLTVSS
VL: SIVMTQTPKFLLVSAGDRVTITCKASQSVNNDVAWYQQKPGQSPKLLIYYASNRDTGVPDRFTGSGFGTDFTFTISSVQAEDLAVYFCQQDYSSPYTFGGGTKLEIK
notes: Tested as chimera (murine variable regions, human IgG1/kappa constants); not shown: human IgG1 constant region (Uniprot P01857); human Kappa light chain constant region (UniProt P01834)
B4: N4_mAb 8 (antibody, human IgG1, V domains shown)
VH: B3 VH with E10V, T31S, T61N, K65R, A79S, L100I, F105Y
VL: B3 VL with S1I, Q38E, F67Y, S77T, Q89H, Y96F, G100S
notes: as for B3
B5: N4_mAb 7 (antibody, human IgG1, V domains shown)
VH: QVQLQQSGPELVKPGASVKMSCKASGYTFTTYYIHWVKQRPGQGLEWIGWIYPGNAGIKSNEKFKGKTTLTADKSSSTAYMLLSSLTSEDSAIYFCARGVYFFDYWGQGTTLTVSS
VL: B3 VL with A34S, Y36F, D55Y, T63S, F67Y, S76T, S77T
notes: as for B3
B6: N4_mAb 1 (antibody, human IgG1, V domains shown)
VH: QVQLKQSGPGLVQPSQSLSITCTVSGFSLTNYGVNWVRQPPGKGLEWLGVIWSGGSTDYNAAFISRLSISKDISKSQVFFKMNSLQADDTAKYYCAREGYDGYAMDYWGQGTSVTVSS
VL: DIQMTQSPASLSVSVGETVTITCRASENIFSSLAWYQQKQGKSPQLLVYGATNLADGVPSRFSGSGSGTQYSLKINSLQSEDFGTYWCQHFWGNPWTFGGGTKLEIK
notes: as for B3
B7: N4_mAb 4 (antibody, human IgG1, V domains shown)
VH: DVQLQESGPDLVKPSQSLSLTCTVTGYSITSAYNWHWIRQFPGNKLEWMGYIHYSGRTNYNPSLKSRISITRDTSKNQFFLQLNSLTTEDTATYYCARWITTATGWYLDVWGAGTTVTVSS
VL: not shown
notes: as for B1
B8: N4_mAb 3 (antibody, human IgG1, V domains shown)
VH: EVQLQQSGAELVKPGASVKLSCTVSGFNIKDTYMHWVKQRPEQGLEWIGRIDPANGNTKYDPKFQGKATIIADKASNTAYLQLSSLTSEDAAVYYCAHYYGSSYFAMDCWGQGTSVTVSS
VL: DIVMTQSHKFMSTSVGDRVSITCKASQDVSTAVAWYQQKPGQSPKLLIYWASTRHTGVPDRFTGSGSGTDYTLTISSVQTEDLALYYCQQHYSTPLTFGAGTKLELK
notes: as for B1

target: T1, full-length human Nectin-4 on cells; assay: cell-based or functional assay

Binder | Endocytosis EC50 (cell killing with MMAF-conjugated Fab anti-hFc), Nectin-4-CHO cells [nM] | Endocytosis EC50 (cell killing with MMAF-conjugated Fab anti-hFc), SKBR3 cells [nM]
B1 | 0.45 | 0.85
B2 | 0.56 | 0.74
B3 | 0.44 | 1.78
B4 | 0.43 | 0.99
B5 | 0.21 | 0.61
B6 | 0.36 | 2.14
B7 | 0.63 | 1.58
B8 | 0.53 | 0.63

target: T2, human Nectin-1 with His tag …; assay: ELISA or Gator binding assay

Binder | binding result
B1 | no binding
B2 | no binding
B3 | no binding
B4 | no binding
B5 | no binding
B6 | no binding
B7 | no binding
B8 | no binding

target: T3, human Nectin 2 (ACROBiosystems, Catalog …); assay: ELISA or Gator binding assay

Binder | binding result
B1 | no binding
B2 | no binding
B3 | no binding
B4 | no binding
B5 | no binding
B6 | no binding
B7 | no binding
B8 | no binding

Target: T4, cynomolgus monkey Nectin-4
Assay: flow cytometry, transfected 293T cells; +++ EC50 less than 5 nM
Procedure: CDNAs encoding Nectin-4 protein from cynomolgus monkey (SEQ ID NO: 62), rat (SEQ ID NO: 63), or mouse (SEQ ID NO: 64) were separately cloned into a pcDNA3.1-based mammalian expression plasmid. The respective plasmids were transfected to human 293T cells in a similar way described in Example 6. The binding EC50 of disclosed human Nectin-4 antibodies to species-specific Nectin-4 transiently expressed on 293T cell surface was measured by flow cytometry.

Binder | EC50 [nM]
B1 | < 5
B2 | < 5
B3 | < 5
B4 | < 5
B5 | < 5
B6 | < 5
B7 | < 5
B8 | < 5

target: T1, full-length human Nectin-4 on cells; assay: flow cytometry competition on CHO-Nectin-4 cells; competitor biotinylated human TIGIT
Procedure: The ability of disclosed Nectin4-specific antibodies to block TIGIT binding to CHO-Nectin-4 cells was assessed by FACS. Briefly, CHO-Nectin-4 cells were incubated with dilutions of the disclosed purified recombinant antibodies. Then, biotinylated human TIGIT protein (SinoBiologic, catalog: 10917-H08H-B, lot: LC13AP0902) was added to the plate. After 30-minute incubation, cells were washed, followed by adding Streptavidin Alexa 647 (1:1000) to the samples. After a 30 minute incubation, the samples were analyzed on a flow cytometry instrument (Intellicyte, IQue plus, Sartorius) for TIGIT blocking activity. The positive control antibody used in this blocking assay is PC2, a Nectin-4 antibody with known blocking activity.

Binder | EC50 [nM]
B1 | 3.11
B2 | 3.04
B3 | 0.31
B4 | 1.37
B5 | 0.75
B6 | 0.91
B8 | 0.94

target: T1, full-length human Nectin-4 on cells; assay: flow cytometry competition on CHO-Nectin-4 cells; competitor biotinylated human Nectin-1-His
Procedure: The ability of disclosed Nectin4-specific antibodies to block Nectin-1 binding to Nectin-4 expressing cells (CHO cells transfected with human Nectin-4) was determined by FACS. Briefly, CHO-Nectin-4 cells were incubated with dilutions of the disclosed Nectin-4 purified recombinant antibodies. Then, biotinylated human Nectin-1 with His tag (ACROBiosystems, catalog number: PV1-H5223, lot: 733-38GS1-47, 0.75 ug/ml) was added to the plate. After 30-minute incubation, cells were washed, followed by adding Streptavidin Alexa 647 (1:1000) to the samples. After a 30 minute incubation, the samples were analyzed on a flow cytometry instrument (Intellicyte, IQue plus, Sartorius) for Nectin-1 blocking activity. The positive control antibody used in this blocking assay is a reference antibody (known to be a recombinant Nectin-4 specific antibody, made by Novarock Biotherapeutics, lot: 03042020KD).

Binder | EC50 [nM]
B1 | 0.5
B2 | 0.64
B3 | 0.12
B4 | 0.33
B5 | 0.21
B6 | 0.78
B8 | 0.3
